From a protein production outcome set (Wang et al. 2014)

Test: label from the status in PepcDB records

Sequence | protein production
MNELILLRQLAENQQYPSLLELAQSLWYDSGNPAVLPLLATANAHMGLKENTQALYQQSLKHFDVLDVDARCDLAVVLIVMQRIDDAIKMLSDILMEQGNHALALARLAYCYLASGRLAEAQHFFEKSLIITPERFIVHRNLVAVYIAQNELNQAQKQLDSATEVLVNYHKVGDPLYQQYWFQLNTTQLQLWVVQGLFCPAEEWLTQLSVRQQAGDYDEAVLVQYVKSYSQVLAEKNFHQQATNILREYLKQYNNNVELCMALAELAQVQGHFMQAISLLQKALKKDEGNSDLWVQLSTACLHRFDKKARKAAVRAVSLAEALEITDEQSLVLIKMKQAQANNALAEVECQEQNFEVSEKLYRDILAEHSHFLPALQGLGQQQMQQGNIDEAVALFERIKDIDLLKGCSALINVRRFPDDVEALDKMAIAANKPSMEGSLRAGILFQLAAAWEKKKDYNKAFRFAEQANNASKKFLSYNAQKHREDCARLRACFNKTLYQHRPNYGIESTIPVYVLGMPRSGTTLVEQILSGHSDIFGAGELGVIPQVIQGINRWERHTGSGRQYPDCIDDFNADTIAGIANNMLKELQELAAETKPESKYVVDKMPHNFENIGLIKFLFPNAKIISVRRDPRDIAMSNYFTDYQAKHGGMGFAYDLEHIGEQLADHNLLMHHWQQTFPDEILEINYEDVVDDIEGCARKMLSYIGVNWQPKVLKFNELVRTVKTASVWQVRQPIYKTSKGKWLRYQTRLTPLIKGTNAKIVSHPITDLLTLPEPGFLTDGVALYKEGKLDDAEMCFKKMLHHNPGHAACHYMIGLVYLTKNHAQDGIRHFEKAVASCPWQKEWRQNLLKAYEQEGETNKIAAFKKGNQRTTANDANNAVTYDEHFTSDAFTTKTTVSQ | failed
MNENEQKAGSVADQKSKIRERYKGIDPDELDVIPALPQEDIFAVENEQRVAVYARVSTDDPRQTSSYELQKNHYHDVISKSPNWKLVQIYADEGISGTSLQHRDQFKLMIEDCKKGQIDLIVTKSVSRFARNVVDCIGYVRELLSLPHPVGVFFETERLNTFDPKSEMVLSFMATLAQEESHTKSEIMNASIEMRFRRGIFLTPILLGYDHDEDGNLIINEGEAKIVKLIFMMYLNGCTCQEIADTLTELGCETKKGNTVWSPGSILQILQNERHCGDVLAHKTYTPNYLNHKSKKNMQNRPQYRKRDHHEAIISRDDFIAVQRLISNAKYGNKGILPQLKVIPGGVLKGFVSINPRWAGFKETDYMNASSSVYDGTEQSGPSSGHVEVKSGEFDLRGYEIARSQFFDSTDRITVTFSQGDIRFSAPAVRKLDSTLVELLIHPKKLVFAVRNAGKDCRNAMQWSKKKDGKNSPREISGTAFLPTLYSLLGWNDDCRYRITGVKRGSGNDAVLLFNLSEPEIFIPNDMVGAPDADPAVKPFTDNQQRNVRAYPPDWADTFGSNYYSHAQAEELAGFTGRKDPDTSHAPVTYNDTDIQVTSKNDIEKNIKQIMSDMKENTDEHTDKR | failed
MNEQPNNETLIQSSSRDLQIIEDDAFSYEGYQVVRGEFFAHTYEPSFTFNANKVSVNTACIKKLPKTDFVQILVNPDEKKLAVRPCQEDEKDSFRWCSATKKRSPRQITCRIFFAKVITLMGWNSSYRYKLLGKLIRSDNELLFVFDLTTPEIYVRTAKDDGKIKTSRTPTYPAEWQNQFGVPVEEHQSNLQINMFDGYAVFGISENTPPEEPKNPAEPQKEETHYEQSSLFTANPMH | failed
MNEVKESLRSIEQKYKLFQQQQFTFIAALEHCRENAHDKIRPISSIEQVQSYMEHYCNNSTHRRILIMFMDICSELSKLCQHFEALHSGTPVTNSLLEKCKTLVSQSNDLSSLRAKYPHEVVNHLSCDEARNHYGGVVSLIPIVLDFMKEWIAHSEKLPRKVLQHGTT | failed
MNFEAIKSIYLFEMARTRRTLLQSVVSPVISTSLYFIVFGTAIGSRIQEVGGVSYGAFITPGLIMLTLLTQCISNGSFGIYFPKFTGTVYEILSAPVSMTEIVAGYVGAAATKGLMIGTIILITASFFVDITIAHPFMMVLFFVLTAVSFSLFGFIIGIWATNFEQLNLIPMLVVPPLTFLGGSFYSIDMLPPFWQTVSHFNPVLYLISGFRWSFYEIADVNPVISLAMITLFLAVCLGVVAWMFKTGYRLRN | failed
MNFLPPTPPPPDPVGWKLPRGSLARHLVLRLMPPLLLLVLLDLAATWVITHKIDMSIWMLEDFFWLMVVGQIVLIALFTGVIIRGVRSGLRSVNHLAEEIRQRSIDDMQPMEVAGLPAEIAPLVTHINDLLGRLDASLAAQRRFIGHAAHQLRTPLSGLRLESELMLARPLPEDVRMRAERIKAVSDRMIRLGQQLLVMARADPDARPQDRFIRLDLCEWVRASGAEWIPRVRAAQAEIDLVAPEQPVWIDGDPLLLDEMLGNLIDNALRYGKPRGRICLTIDVNPPALIIEDDGPGISPQERDSVFEAFYRAPDAKAGGSGLGLAIVREIAHAHGAWWKLSSRPEYAGTRLSVVFPGPRIGTQLTRQERAS | failed
MNFNWFLMLFLFNFSVLLGSDTTALGHYQRANEYYLSKRYYDAIDELVEAIKINPNYYEAYKFIASIYYSLKIYTQAQFFIEKASKMSNEDTEYKILYANILLKNDKIDQAKKIYSEVLVKQRNNIDALVGLASIFEKNGLFIAAANYYLSILDYSQNNYSAFEHLIDIYQRLGMHDKIRHLINKVRVNFLSFPDFHKRVAEFYISINNLGLAEKYALNYLALIESSYKDFGVVDAYRLLALVYLHEFKYEDAIEALQKAILVNKDSDELYYLLGYSYLRFGDIEKAILNLERAKNLKKDLEFYNIALEESFFASNFRNFLKNNSNARISKHYENEGLKAFKSLNLNKALFNAKNAVDIWPDNDSARFLLSKIYKLMNLDIMAYEQLFYLAKQRNSTDSRILDFYDVVSFDVRKSLFYKYGYKSIADFNKLYDDRVVYKMAIFTQSENKFFGANDLILRYAERVLERNLNMEIVNYNFDYNKNRDYLINNFSEGFSYSRNNNLDLFLIFDFKADILKNTATLVVNIFSGKTGIKLVSFSYDVGGVNYLSNALNSLSKDFHDYLPKKGKILQIKNDDALINLGQVNGVVKGDVFLILKEGALNSDTRDSGFIVYKKSDILGEILIEDISDYISRGIVKSSTFLKDYVQEGATVLIKR | failed
MNFPISTIRIGGWVVVAKNPDDIVAKFYFAKKKLIWEFLFGEPETNTLRLKRKIEIQWNDVSSFEESISSRDETGILKIELKKRPTFFIETNPQAGKHTQWKQLDHDFTGDHASNYRRHTLHFPPGVLQKNLEKLVTDSFWSKLYEVPFPVHESRYFDSGFENNSSRNSHSHTVGFNVNNGPQHHFSQGIGGVGVGEGNFSMANGGWQRNSYSPVNSLNYNTANEFFGMQATPPSSQVVNEHYNTQNDFTGSQFGYHMNQDEIQKILESQAYAVPDTQTKLMSSAMNNVPKYPQAGSCLESMLFWYEHRRRFQQ | failed
MNFPTQTHAIDFDTAELQRLGFRNRPDAVLPPPSLPELVYQLGRQLQTSLEAERILTLFFQGVQRFLPLSGLVYRHIESDLHLRLGEMSSDSASFHLRHEGKCIGELEFQGAKPFDTRQLSDLESLLVCLVYPLLNALLYRIATQTALRDPLTSTGNRIAMDQGLAREIEISSRHKQPLSLLMLDIDHFKKVNDEYGHHTGDDVLKTVAQSLKAQLRNIDRVFRYGGEEFVVILSNTGATAAELIGERLRQAVRNLEFRELDPALTMTVSLGCSTLLPTETADSLLRRADNALYVAKREGRNRLAMAS | failed
MNFQRFKAIVKKEVIQLKRDRASFGIAIMMPIVMIFLFGYAVNTELSNISMTVLDQSNSIESRELIQSFQNTGYFKVVSRVKSIEEVREKMDKGKVHAAIVIPPDFSNKLQMREESNVQLLVDGSDPTTARTAFSSGVVSGQQYGMKKLQGFGEKTSSKFQEGGVNVNTRVLYNPNLRNQNFTIPGLIGLIMQNITILLTAFALVRERERGTIEQLTVSPLKAGEIILGKLVPYIFIGYIDFLFSLVLGIKWFNVPINGSIPLLLLLGFAFVICALAIGILISTISKTQLQAMQLTILVLLPSILLSGFVFPREAMPKVIQLIGNVLPLTYFLNILRGIITKGVGVQYLSRDIAAMCCLAVILLTLSIVRFRAKPYNS | failed
